Assay results from the DeepSol protein solubility set.

assay: soluble on expression in E. coli; label from the status in PepcDB or PDB records

Sequence | soluble on expression in E. coli
MMKKYLISLAKDQQRREQFFTQADTADFQVFDAVNTMQQEWDSLAVKYDITQFAQRYQRSVTKGEIGCTLSHLGVYQWIVADPQIGDNDYCLVCEDDALFNQDVQSSLTQLLSQNVHADIVLVGQSKIFGFDDAMLEIEYPTTFAPQMVAIGNSIYRYAYPYKNYYAGTVAYLIKKSTARKLVSITDLPFWLADDFILFEQQFGLDIMVVRPLMAIENPALCSNLETARASTQQALSKKLLKYPFKKWLAIQRNIGLKNDQCGNLEHHHHHH | not soluble
MSICLIAEEGADSGALSSLAERWGLVSDPNAVMALVLTTERLELRKQDEPKLGAIFVDFVAGPMAHRRRFGGGRGEAVAKAVGIKKDYLPDVVDATAGLGRDAFVLAALGCHVRMVERNPVVAALLDDGLKRGYQDAEIGPWLRERLTLLHASSMTALRDITPPPDVVYLDPMFPHKQKSALVKKEMRVFQSLVGADDDADALLEPARALAKKRVVVKRPDYAPPLAGVPAQSMLETKSHRFDFYLPVLEHHHHHH | soluble
MSKVKIELFTSPMCPHCPAAKRVVEEVANEMPDAVEVEYINVMENPQKAMEYGIMAVPTIVINGDVEFIGAPTKEALVEAIKKRL | soluble
MKFGNFLLTYQPPELSQTEVMKRLVNLGKASEGCGFDTVWLLEHHFTEFGLLGNPYVAAAHLLGATETLNVGTAAIVLPTAHPVRQAEDVNLLDQMSKGRFRFGICRGLYDKDFRVFGTDMDNSRALMDCWYDLMKEGFNEGYIAADNEHIKFPKIQLNPSAYTQGGAPVYVVAESASTTEWAAERGLPMILSWIINTHEKKAQLDLYNEVATEHGYDVTKIDHCLSYITSVDHDSNRAKDICRNFLGHWYDSYVNATKIFDDSDQTKGYDFNKGQWRDFVLKGHKDTNRRIDYSYEINPVGTPEECIAIIQQDIDATGIDNICCGFEANGSEEEIIASMKLFQSDVMPYLKEKQ | soluble
MQGQKIPATVITGFLGSGKTTMIRNLLENANGKRIALIINEFGDLGVDGGILKRCGIETCREEDVIELNNGCICCTVADDFIPTMTKLLDREDRPDHIVIETSGLALPQPLVAAFNWPEIKTQVTVDGVVTVIDAAAVAEGRFADDHDKVDAQRAADESLDHESPLEELFEDQIHAADLIVLNKADLIDAAKLDSVKADVAERSSRRVNMVPASFGKLGADVLLGLGVGTEDDIVNRRSHHEAHHGDGHEHDHDEFESFVVEAGSVADPKAFAEKLKAVIAEHDILRLKGFVDVPGKPMRLVVQAVGPRIEHYFDRPWGKDETRSTRLVVIGLHDIDEAAIAQAVKDADLEHHHHHH | not soluble
FASVLQGVFEYPYGCAEQTASKGYAALWLDDATIRSLGIQGVTPAQRLERLEGALGRLASLQTTNGHFSMWGGNSDVNPVLTPYIAGFLLDAKDAGFAVSDAVLQKALNRLSEDLLSGAHLFYGNDQSEALMFAHQAWSGYVLARVNRAPLGTLRTLYDNERGKAVSGLSLVHLGVALSLQGDRKRGEAAIEAGFAKSEGGRPEVFGDYGSVIRDNALMIALVRAHGLAKPAYEARVMALGRDLQARRRSGWLWLSTQEQVALAQ | not soluble
MAHHHHHHMNREQIARRIDLVGPSTGAIVGVATWCALHGAEADAILNYVAEKMKHKDTTDAQRASLVYVIHELLLSCATRGVSENAKRSILKAVSLTLPSAVRDTLRQRASDHTAFLIALQKATEWWGTLNLFPAAWLAKLQCTVQDGQESAGHRTTVPSALMQVANLLQRYQHAKEQWVQNRNIKAEEGRTGSGVASGQDTAAPLAGGGAGASSAVVDDAARRCLIALRKAVESRFERNAAFLAWCEAERAELEGRATTSSADSGVVKMAHGTSPHVPTHSGSGSSYSVKEEGGHSGGPSGEPNDDEDVLGSFFS | soluble
MSDPRDLMSEFQKLRVETSKIQNEFKEKPGYVEDKLHKNTQEICQQILKKQGKSQKSQENQNAFIENLMSELKTAKSKLNETENQISDLHEATKQQESQANLWNDLVAKISDKNLEMMLKIQKSQDLMIMKMQEGSAVQDVPIETEKSAKNGPFFEILVIWTDSRGPVVPGNHGKLRVCGSDTIRQIKPRINSLAGIDTISFRTFCDDKFLEDDHTLAHYNIREGSTICVFFH | not soluble
MGSDKIHHHHHHMSSRNRIIWREGLFIKPQHFQQQQRHTDYALHARLSALSDYFYGLQSLAINEEYLNFGRIALVNASGVMPDGTVFNIPGDDALPLPLEITDVALANQKVYLALPLAVNGVSEVGQPGQGIASRLQSHRHDVRDLHSDGGDIVSLEVGKVSLRLMLDRDDRSAYASLAIANILDKRPDGGLILDPNFMPCSISVTAIPTLKRFLGESAGLVAERARSLAQRIAAPGQQGVADVAEFMMLQLLNRAQPKLSHLARLGTLHPERLHETLVELCGELMTFTDESRLPPEFPAYRHEHQQASFEPLMMALRQALSTVLSPRAVSIQLKKQPYGVMVAMVGDAELMTSAEFVLAVRARMPQEHLRKQLLQQTKIASSEKIRELISLQLPGIPLLPLPVAPRQLPYHAGYSYFQLDRQSPAWQVLVSGNTLAFHIAGEFPELDMQLWAIRGQ | not soluble
MKIHTTEALMKAEISRRSLMKTSALGSLALASSAFTLPFSQMVRAAEAPVEEKAVWSSCTVNCGSRCLLRLHVKDDTVYWVESDTTGDDVYGNHQVRACLRGRSIRRRMNHPDRLKYPMKRVGKRGEGKFERISWDEALDTISDNLRRILKDYGNEAVHVLYGTGVDGGNITNSNVPYRLMNSCGGFLSRYGSYSTAQISAAMSYMFGANDGNSPDDIANTKLVVMFGNNPAETRMSGGGVTYYVEQARERSNARMIVIDPRYNDTAAGREDEWLPIRPGTDGALACAIAWVLITENMVDQPFLDKYCVGYDEKTLPANAPRNAHYKAYILGEGPDGIAKTPEWAAKITSIPAEKIIQLAREIGSAKPAYICQGWGPQRHSNGEQTSRAIAMLSVLTGNVGINGGNSGVREGSWDLGVEWFPMLENPVKTQISVFTWTDAIDHGTEMTATRDGVRGKEKLDVPIKFLWCYASNTLINQHGDINHTHEVLQDDSKCEMIVGIDHFMTASAKYCDILLPDLMPTEQEDLISHESAGNMGYVILAQPATSAKFERKPIYWMLSEVAKRLGPDVYQTFTEGRSQHEWIKYLHAKTKERNPEMPDYEEMKTTGIFKKKCPEEHYVAFRAFREDPQANPLKTPSGKIEIYSERLAKIADTWELKKDEIIHPLPAYTPGFDGWDDPLRKTYPLQLTGFHYKARTHSSYGNIDVLQQACPQEVWINPIDAQARGIRHGDTVRVFNNNGEMLIAAKVTPRILPGVTAIGQGAWLKADMFGDRVDHGGSINILTSHRPSPLAKGNPSHSNLVQIEKV | not soluble
MADESETAVKPPAPPLPQMMEGNGNGHEHCSDCENEEDNSYNRGGLSPANDTGAKKKKKKQKKKKEKGSETDSAQDQPVKMNSLPAERIQEIQKAIELFSVGQGPAKTMEEASKRSYQFWDTQPVPKLGEVVNTHGPVEPDKDNIRQEPYTLPQGFTWDALDLGDRGVLKELYTLLNENYVEDDDNMFRFDYSPEFLLWALRPPGWLPQWHCGVRVVSSRKLVGFISAIPANIHIYDTEKKMVEINFLCVHKKLRSKRVAPVLIREITRRVHLEGIFQAVYTAGVVLPKPVGTCRYWHRSLNPRKLIEVKFSHLSRNMTMQRTMKLYRLPETPKTAGLRPMETKDIPVVHQLLTRYLKQFHLTPVMSQEEVEHWFYPQENIIDTFVVENANGEVTDFLSFYTLPSTIMNHPTHKSLKAAYSFYNVHTQTPLLDLMSDALVLAKMKGFDVFNALDLMENKTFLEKLKFGIGDGNLQYYLYNWKCPSMGAEKVGIVLQ | soluble
MGSDKIHHHHHHMGQSEVNFYQQEVVELLKQVIEPNLKNDIVSLGMVRNLRIVDDYVYLRLYIGSHQQQLQTEVEAKLSALSWCKKTYIQICTIPGVKITLGISSGKGGVGKSTTAVNIAAALSLQGAKVGLLDADVYGPNVPQMLGLGQADVEVIQTPTGEKFLPLEVQGIKLMSVGLLAEENRPLAWRGPVLHKIITQFINDVEWGELDYLLIDLPPGTGDAQITIIQESPICGVILVTTPQQVAVADVRRNIYMFRQVGVPVLGIVENMSYLICGDCGSRTYIFGSGGGEQLATELQAPLLGQIPIDQRICSGGDSGNPIAISEQTSPASEVFRNIAIAIGLSFP | not soluble
MSLKNYQSSDPFKEARVSSGCAHMNDQDDPVTMILRLKDVRKTAHNWKTFQSGAAPGRIVIPSEVNIRDTRQIPFEVDPPLHGAFRSLLDPWFKRPLKAQYQETLAQQVNALVDDVLKADSIDVVEDFALCLQSRALTLLLNTDADEADTWIGWGTHVFRSEDDPLDGDKAAILYDYIDEKIKASSPNPEGDLYSVLLAAEVEGKKLTHEEIKGIMILTFAGGRDTVINAVTNTVSYFAQHPESLARLRNEPEIIGRAIEELIRYFTPLTQMGRVVTQDTQVCEHAIKADSRVSLCWASANRDESVFESPNDVILDRKLNPHVSFGFSHHNCLGATHARQIMRVLIETLMAKVGSIDIIDFEENIEYLGEFERKVGFHKLHVNIHPREGHHHHHH | soluble
AEQDMYLLRQSFGKHKTVSAGVPWFSTLFGRDSLITASQTLMLNSQIAKETLILLAKYQGKIDDEWREEEPGKILHELRLGEMARCQEIPHTPYYGTVDATPLWLMLYAEHYAWTHDQELLELLWPNALAAMDWIDRNTKQTSYLSYFRKSKRGLANQGWKDSGDCIVNHKGELANGPIALCEVQAYVYAAKTRLAEIARMKKRLDLADRWLEEARSLKVRFNRDFWVEDQDFCALALDGDGKPVDSITSNPGHCLHLGLFTHERAYSVAERLRAPDMFNGWGIRTLSSLSPAYNPMGYHIGSVWPHDNALIAMGLRSLGLIDQALELFQGLFDMTSQQPYERPPELFCGYERNGDNAPVQYPVACTPQAWATGSIFQ | not soluble
NRNFSIQMKGTFTYAHNEVLKYDEAAGLRPALSQVGKSLNSIWGYVADGLYIDEADIANNPQSTIGNIAIAPGDVKYVDQPDASGNYDGKITSDDRVVLGYPTIPEIIYGFGPSITWKNWDFSFFFQGQARVSFMMSGFEPFGTQSKNNVLKWISDDHWSKDNQNPNARYPRLTQYNNNNNTASSSYWLRNASFLKLRNAEIGYRFKWARIYVNGSNLLTFSPFKLWDPEMGGGAGMKYPTQRTYNVGIQLTFK | not soluble
GPGSMPAINREELDRRVEQIYDQVVAWRRYIHENPDLSFEEQPTAAYIKGELQKMDAEGRWLHISQPESNCVVADLKGGGGDGPIIALRADIDALPVEELTDVPFASKKQGVMHACGHDTHAAMLLGATKLLLEDAGRIKGTVRLLFQPAEEVPPGGAQMMIEKGCMEGVAMVFAEHIIPMKEGPTGTVLVKRGPFLSSSDTLHVEIIGRGGHASMPESSIDPIAIACLAVTALQQVVSRRMPPSKCPILTITTIASSSDSYNVIPDRVTLKGTLRTQDREVRENAKKAVAEVLHGICGSYGAMCSLNWLPGYDVTVNTDSAYDVGMRVFAQVLPSKDQVVVLSACMSPSEDFSEFAKVAPANYVGIGCYNPGKGCTAVNHNAKFCVDEEAMKVGVKVHYGTIHELLMQ | not soluble
MGSDKIHHHHHHMGIINAAFRLSQIERSIINKECHRTTCSLMDFIRDYTVVATDLEEAVQLRSTYNSLRRLGESDITEEDAVNILQQGTVIFNRISAYSYEELERKLVANYPNTPVLNAVDVVKKYSQKGNFKLGPVSTVLNAGEITGIVGENGNGKTTLLRILARLLSYDEGVLQYQFDGQETTEDYLIKHRIAYIPQRLESWQGTLRENLHYAATIHNIVGEENEKIVEFVIHRMGLSNFAHLGWKELSSGYKLRFELAKMLVWSPRILVLDEPLANLDINAQEWILQDFKSMASSIKNPVSVILSSQQLHEVEHVADNIIFLRNGRCDYSGAMNAFMQERDENVFELSGNFTSKELQPIFSNHAVQFSESGITIIVRTNTAITAADVLSMLISNGYTIKYFRDISTSTKQLFQL | not soluble
